Where two headings read alike, the source gives them in different places. Values belong to the compound of their own block, whether it stands above or below them. Square brackets hold non-standard residues; d marks the D form. Ends that are not written are not given here. Peptide text beside a SMILES is read from it. Aad = N[C@@H](CCCC(=O)O)C(=O)O; Sec = N[C@@H](C[SeH])C(=O)O
Assays:
human JMJD7 [1] = target: T1, human JMJD7 (Homo sapiens, UniProt P0C870); assay: MALDI-TOF MS JMJD7 inhibition assay; assay type: biochemical
T1 construct: human JMJD7 (residues 1–316) with an N‐terminal His6‐tag; His6 (N); made in house; host or cells: Escherichia coli Rosetta (DE3)

[2] = target: human Jumonji-C (JmjC) domain-containing protein 7 (JMJD7), residues 1-316 (human) (UniProt P0C870)
[3] = target: human Jumonji-C (JmjC) domain-containing protein 7 (JMJD7), residues 1-316 (human) (UniProt P0C870); remark: listed apart in the source
human JMJD7 [4] = target: T1, human JMJD7; assay: MALDI-TOF MS JMJD7 inhibition assay; assay type: biochemical; details: standard conditions
Procedure: Due to signal overlaps between some DRG1 peptides and the reference DRG1‐Lys substrate, we synthesized a shorter reference substrate peptide (DRG1‐Lys, residues 17–40) for use in the MS‐based inhibition assays. Synthetic DRG1 peptides (residues 16–40, 10 or 50 μM) were preincubated with JMJD7 (200 nM) for 15 min, after which time the DRG1‐Lys substrate (residues 17–40, 5 μM), 2OG (10 μM), FAS […] and LAA […] were added, and the reaction were carried out for 25 min at room temperature. Most of the DRG1 peptides were not active as JMJD7 inhibitors at 10 μM (residual activity of JMJD7 >50%) (Figure S41a,b), with exceptions including the DRG1‐Orn, DRG1‐hGln and DRG1‐4pyrA peptides.
Single point screening assays were as follows; initially, JMJD7 (200 nM) and substituted DRG1 peptide (10 or 50 μM) were incubated for 15 min, followed by the addition of a mixture of the DRG1‐Lys substrate (5 μM), 2OG (10 μM), FAS (10 μM) and LAA (100 μM) in a final volume of 50 μL in Tris‐buffer (pH 7.5) and incubated for additional 25 min at room temperature. […] Reactions were quenched by the addition of 10% (v/v) formic acid and mixed 1:1 with CHCCA matrix (1:1 v/v MeCN:H2O) then analyzed by MALDI‐TIMS‐TOF MS. JMJD7 activity was determined by calculating the integral of hydroxylated peptide and normalized to a control reaction in absence of potential inhibitory peptides. Every experiment was performed in duplicate (n = 2), error bars are reported as SE.

[5] = 200 nM JMJD7 preincubated 15 min with peptide (1 nM–150 μM), 5 μM DRG1-Lys (17–40) substrate, 10 μM 2OG, 25 min, room temperature, Tris pH 7.5, MALDI MS, duplicate (n = 2), ± SE, read-out: IC50 (JMJD7 inhibition, with 15 min preincubation)

Sequence of human Jumonji-C (JmjC) domain-containing protein 7 (JMJD7), residues 1-316 (human) (P0C870 whole entry, the tested form may be a part): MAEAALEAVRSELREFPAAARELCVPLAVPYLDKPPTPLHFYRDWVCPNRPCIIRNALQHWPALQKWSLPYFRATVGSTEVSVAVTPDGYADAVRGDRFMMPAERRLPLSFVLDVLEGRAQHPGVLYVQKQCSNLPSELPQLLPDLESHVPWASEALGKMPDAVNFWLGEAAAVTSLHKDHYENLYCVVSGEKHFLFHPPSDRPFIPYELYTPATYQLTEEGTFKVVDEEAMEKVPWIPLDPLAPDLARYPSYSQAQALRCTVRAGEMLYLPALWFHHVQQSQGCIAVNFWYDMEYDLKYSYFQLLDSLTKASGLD
T1 sequence (P0C870 whole entry, the tested form may be a part): as above
Sequence of DRG1-Orn peptide (DRG1 residues 16-40, Orn in place of Lys22) (peptide): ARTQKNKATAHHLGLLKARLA

IC50 (human JMJD7 [1]; [5]): 1.46 µM
IC50 (human JMJD7 [1]; same assay conditions but without preincubation, read-out: IC50 (JMJD7 inhibition, without preincubation)): 2.8 µM
Compound: CC(C)C[C@H](NC(=O)CNC(=O)[C@H](CC(C)C)NC(=O)[C@H](Cc1c[nH]cn1)NC(=O)[C@H](Cc1c[nH]cn1)NC(=O)[C@H](C)NC(=O)[C@@H](NC(=O)[C@H](C)NC(=O)[C@H](C[SeH])NC(=O)[C@H](CC(N)=O)NC(=O)[C@H](CCCCN)NC(=O)[C@H](CCC(N)=O)NC(=O)[C@@H](NC(=O)[C@H](CCCNC(=N)N)NC(=O)[C@H](C)N)[C@@H](C)O)[C@@H](C)O)C(=O)N[C@@H](CC(C)C)C(=O)N[C@@H](CCCCN)C(=O)N[C@@H](C)C(=O)N[C@@H](CCCNC(=N)N)C(=O)N[C@@H](CC(C)C)C(=O)N[C@@H](C)C(=O)N[C@@H](CCCCN)C(=O)N[C@@H](CC(C)C)C(=O)N[C@@H](CCCNC(=N)N)C(=O)N[C@@H](CCCNC(=N)N)C(N)=O [DRG1‐Sec] (H-ARTQKN[Sec]ATAHHLGLLKARLAKLRR-NH2)

IC50 (human JMJD7 [1]; [5]): 7.68 µM
Compound: CC(C)C[C@H](NC(=O)CNC(=O)[C@H](CC(C)C)NC(=O)[C@H](Cc1c[nH]cn1)NC(=O)[C@H](Cc1c[nH]cn1)NC(=O)[C@H](C)NC(=O)[C@@H](NC(=O)[C@H](C)NC(=O)[C@H](CCCC(N)=O)NC(=O)[C@H](CC(N)=O)NC(=O)[C@H](CCCCN)NC(=O)[C@H](CCC(N)=O)NC(=O)[C@@H](NC(=O)[C@H](CCCNC(=N)N)NC(=O)[C@H](C)N)[C@@H](C)O)[C@@H](C)O)C(=O)N[C@@H](CC(C)C)C(=O)N[C@@H](CCCCN)C(=O)N[C@@H](C)C(=O)N[C@@H](CCCNC(=N)N)C(=O)N[C@@H](CC(C)C)C(=O)N[C@@H](C)C(=O)N[C@@H](CCCCN)C(=O)N[C@@H](CC(C)C)C(=O)N[C@@H](CCCNC(=N)N)C(=O)N[C@@H](CCCNC(=N)N)C(N)=O [DRG1‐hGln] (H-ARTQKN[Aad](NH2)ATAHHLGLLKARLAKLRR-NH2)

IC50 of inhibition of JMJD7-catalysed (200 nM) hydroxylation of the DRG1-Lys substrate (residues 17-40, 5 μM), MALDI-TOF MS, 15 min preincubation [2]: 15.2 µM
Compound: DRG1-4pyrA peptide (DRG1 residues 16-40, 4pyrA in place of Lys22)

IC50 of inhibition of JMJD7-catalysed hydroxylation of the DRG1-Lys substrate, MALDI-TOF MS, 15 min preincubation [3]: 1.25 µM
IC50 of inhibition of JMJD7-catalysed hydroxylation of the DRG1-Lys substrate, MALDI-TOF MS, without preincubation [3]: 16 µM
Compound: DRG1-Cys peptide (DRG1 residues 16-40, Cys in place of Lys22)

IC50 of inhibition of JMJD7-catalysed (200 nM) hydroxylation of the DRG1-Lys substrate (residues 17-40, 5 μM), MALDI-TOF MS, 15 min preincubation [2]: 14 µM
Compound: DRG1-Orn peptide (DRG1 residues 16-40, Orn in place of Lys22)

IC50 of inhibition of JMJD7-catalysed hydroxylation of the DRG1-Lys substrate, MALDI-TOF MS, 15 min preincubation [3]: 1.46 µM
IC50 of inhibition of JMJD7-catalysed hydroxylation of the DRG1-Lys substrate, MALDI-TOF MS, without preincubation [3]: 2.8 µM
Compound: DRG1-Sec peptide (DRG1 residues 16-40, selenocysteine in place of Lys22)

IC50 of inhibition of JMJD7-catalysed (200 nM) hydroxylation of the DRG1-Lys substrate (residues 17-40, 5 μM), MALDI-TOF MS, 15 min preincubation [2]: 7.68 µM
Compound: DRG1-hGln peptide (DRG1 residues 16-40, hGln in place of Lys22)

inhibition of JMJD7 by the shorter peptide fragment (human JMJD7 [4]): No inhibition
Compound: DRG1‐Cys (residues 19–25): shorter peptide fragment DRG1-Cys (residues 19–25) (QKNCATA-NH2)
